According to paper doi:10.1101/2022.04.07.487446 (bioRxiv, 2022):

Molecular target: FANCD2 (human, UniProt Q9BXW9 1-1451)
Assay: cryo-EM structure

Chain of FANCD2 (Q9BXW9 whole entry): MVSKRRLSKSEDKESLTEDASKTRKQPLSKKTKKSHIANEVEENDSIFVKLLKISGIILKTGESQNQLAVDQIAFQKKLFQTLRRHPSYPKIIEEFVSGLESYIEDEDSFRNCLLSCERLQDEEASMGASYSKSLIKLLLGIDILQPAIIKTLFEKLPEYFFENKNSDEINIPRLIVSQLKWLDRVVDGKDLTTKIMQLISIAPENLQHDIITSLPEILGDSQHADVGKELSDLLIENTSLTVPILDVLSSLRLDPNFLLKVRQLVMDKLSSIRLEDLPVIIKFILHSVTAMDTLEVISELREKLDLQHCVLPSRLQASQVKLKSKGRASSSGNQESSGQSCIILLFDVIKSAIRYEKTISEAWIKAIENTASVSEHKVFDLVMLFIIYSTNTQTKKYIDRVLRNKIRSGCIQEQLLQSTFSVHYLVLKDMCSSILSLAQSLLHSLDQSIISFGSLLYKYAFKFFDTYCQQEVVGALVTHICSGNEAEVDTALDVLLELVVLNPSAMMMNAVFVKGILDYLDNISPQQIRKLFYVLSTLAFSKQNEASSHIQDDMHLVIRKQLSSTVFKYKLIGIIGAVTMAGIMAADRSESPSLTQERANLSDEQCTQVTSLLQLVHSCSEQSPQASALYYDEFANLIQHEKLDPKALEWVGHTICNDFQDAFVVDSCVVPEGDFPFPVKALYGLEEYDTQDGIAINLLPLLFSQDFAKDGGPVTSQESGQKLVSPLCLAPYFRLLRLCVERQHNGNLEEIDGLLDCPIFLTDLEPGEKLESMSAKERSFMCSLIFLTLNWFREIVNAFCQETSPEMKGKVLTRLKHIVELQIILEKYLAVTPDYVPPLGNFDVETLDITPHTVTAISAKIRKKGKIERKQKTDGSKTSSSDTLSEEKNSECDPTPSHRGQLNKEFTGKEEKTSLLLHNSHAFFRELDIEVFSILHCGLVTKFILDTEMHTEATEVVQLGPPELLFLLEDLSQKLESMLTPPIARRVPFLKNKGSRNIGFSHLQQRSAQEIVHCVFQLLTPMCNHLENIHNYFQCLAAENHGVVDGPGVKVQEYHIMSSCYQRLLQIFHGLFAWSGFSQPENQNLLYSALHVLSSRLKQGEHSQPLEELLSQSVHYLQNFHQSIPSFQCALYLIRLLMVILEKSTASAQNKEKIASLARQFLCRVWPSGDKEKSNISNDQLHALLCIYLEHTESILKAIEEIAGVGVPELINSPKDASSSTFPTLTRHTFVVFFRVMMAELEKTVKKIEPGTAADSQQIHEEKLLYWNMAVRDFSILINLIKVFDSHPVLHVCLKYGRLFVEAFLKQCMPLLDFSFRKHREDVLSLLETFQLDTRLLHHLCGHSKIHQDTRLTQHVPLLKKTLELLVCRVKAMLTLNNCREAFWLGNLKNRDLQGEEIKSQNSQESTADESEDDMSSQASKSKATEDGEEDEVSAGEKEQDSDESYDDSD

binding result: binds
B1: ubiquitinated His6-V5-FANCI (natural protein)
chain 1: MDQKILSLAAEKTADKLQEFLQTLREGDLTNLLQNQAVKGKVAGALLRAIFKGSPCSEEAGTLRRRKIYTCCIQLVESGDLQKEIASEIIGLLMLEAHHFPGPLLVELANEFISAVREGSLVNGKSLELLPIILTALATKKENLAYGKGVLSGEECKKQLINTLCSGRWDQQYVIQLTSMFKDVPLTAEEVEFVVEKALSMFSKMNLQEIPPLVYQLLVLSSKGSRKSVLEGIIAFFSALDKQHNEEQSGDELLDVVTVPSGELRHVEGTIILHIVFAIKLDYELGRELVKHLKVGQQGDSNNNLSPFSIALLLSVTRIQRFQDQVLDLLKTSVVKSFKDLQLLQGSKFLQNLVPHRSYVSTMILEVVKNSVHSWDHVTQGLVELGFILMDSYGPKKVLDGKTIETSPSLSRMPNQHACKLGANILLETFKIHEMIRQEILEQVLNRVVTRASSPISHFLDLLSNIVMYAPLVLQSCSSKVTEAFDYLSFLPLQTVQRLLKAVQPLLKVSMSMRDCLILVLRKAMFANQLDARKSAVAGFLLLLKNFKVLGSLSSSQCSQSLSVSQVHVDVHSHYNSVANETFCLEIMDSLRRCLSQQADVRLMLYEGFYDVLRRNSQLANSVMQTLLSQLKQFYEPKPDLLPPLKLEACILTQGDKISLQEPLDYLLCCIQHCLAWYKNTVIPLQQGEEEEEEEEAFYEDLDDILESITNRMIKSELEDFELDKSADFSQSTSIGIKNNICAFLVMGVCEVLIEYNFSISSFSKNRFEDILSLFMCYKKLSDILNEKAGKAKTKMANKTSDSLLSMKFVSSLLTALFRDSIQSHQESLSVLRSSNEFMRYAVNVALQKVQQLKETGHVSGPDGQNPEKIFQNLCDITRVLLWRYTSIPTSVEESGKKEKGKSISLLCLEGLQKIFSAVQQFYQPKIQQFLRALDVTDKEGEEREDADVSVTQRTAFQIRQFQRSLLNLLSSQEEDFNSKEALLLVTVLTSLSKLLEPSSPQFVQMLSWTSKICKENSREDALFCKSLMNLLFSLHVSYKSPVILLRDLSQDIHGHLGDIDQDVEVEKTNHFAIVNLRTAAPTVCLLVLSQAEKVLEEVDWLITKLKGQVSQETLSEEASSQATLPNQPVEKAIIMQLGTLLTFFHELVQTALPSGSCVDTLLKDLCKMYTTLTALVRYYLQVCQSSGGIPKNMEKLVKLSGSHLTPLCYSFISYVQNKSKSLNYTGEKKEKPAAVATAMARVLRETKPIPNLIFAIEQYEKFLIHLSKKSKVNLMQHMKLSTSRDFKIKGNILDMVLREDGEDENEEGTASEHGGQNKEPAKKKRKK
chain 2: […]
